Measurements: article PMC11885566 (Communications Biology, 2025)
Where a chain is given by its changes, count along the chain named.

B1: CYFN1006-1 (antibody, V domains shown)
VH: QMQLVQSGAEVKKPGESLKISCKGSGYTFSYYWIGWVRQMPGKGLEWMGIIYPGDSDTRYSPSFQGQVTISADKSISTAYLHWSSLKASDTAMYYCARQGDLGDWILLGYWGQGTLVTVSS
VL: QSALTQPRSVSGSLGQSVTISCTGISSDVGGDNYVSWYQQHPGKAPKLMIYDVSKRPSGVPDRFSGSKSGNTASLTISGLQADDEADYYCCSYALSRVVFGGGTMLTVL
B2: CYFN1006-2 (antibody, V domains shown)
VH: B1 VH
VL: B1 VL with R8P, V10A, L14P, I25A, D32Y, D52E, S54N

Assays:
[1] = target: SARS-CoV-2 wild-type RBD protein (BLI) (SARS-CoV-2, UniProt P0DTC2); assay: BLI
[2] = target: SARS-CoV RBD protein (BLI) (SARS-CoV (isolate of the bought protein …, UniProt P59594)); assay: BLI
[3] = target: T1, SARS-CoV-2 S ectodomain with D7-tag (SARS-CoV-2, UniProt P0DTC2); assay: cell-based or functional assay
[4] = target: SARS-CoV-2 NTD protein with D7-tag (SARS-CoV-2 (NC_045512.2, Wuhan-Hu-1), UniProt P0DTC2); assay: ELISA
[5] = target: SARS-CoV-2 S2 subdomain protein with D7-tag (SARS-CoV-2 (NC_045512.2, Wuhan-Hu-1), UniProt P0DTC2); assay: ELISA
[6] = target: SARS-CoV-2 S1 subdomain protein with D7-tag (SARS-CoV-2 (NC_045512.2, Wuhan-Hu-1), UniProt P0DTC2); assay: ELISA
[7] = target: SARS-CoV-2 RBD protein with D7-tag (SARS-CoV-2, UniProt P0DTC2); assay: ELISA
[8] = target: T1, SARS-CoV-2 S ectodomain with D7-tag; assay: ELISA

Binder | Kd [1] [nM] | Kd [2] [nM] | neutralisation of SARS-CoV-2, IC50 [3] [ng/mL] | binding result [4] | binding result [5] | binding result [1] | binding result [6] | binding result [7] | binding result [8]
B1 | < 0.001 | 32.4 | < 5 | no binding | no binding | – | – | – | –
B2 | – | – | – | no binding | no binding | binds | binds | binds | binds
